Data as given in US20240261427A1, “LINKERS, DRUG LINKERS AND CONJUGATES THEREOF AND METHODS OF USING THE SAME” (ProfoundBio US Co., priority 2021, published 2024).

Tested on: Hela cells
Assay: Flow cytometry binding to Hela cells
Format: cell-based, human
Conditions: transfection supernatant, FIG. 6
Description: The binding activity of the antibodies to Hela cells (ATCC® CCL-2, provided by COBIOER) and to RPTEC/TERT1 cells (ATCC® CRL-4031, provided by COBIOER) was tested by flow cytometry using the transfection supernatants. Briefly, target cells were digested with 0.02% EDTA-2Na, centrifuged at 1500 rpm for 3 mins, and resuspended with PBS. After counting, the cells were added to a 1.5 ml centrifuge tube with 1×10^6 cells per tube, centrifuged at 1500 rpm for 5 minutes, and the supernatant was discarded. Then all the operations were carried out on an ice bath. 100 μL of transfection supernatant was added to each 1.5 ml centrifuge tube. Blank cells, blank cells plus secondary antibody, medium and HEK293 supernatant were set up as the controls. The reaction was performed on an ice bath for 1 hour. Then the cells were pelleted and washed twice with PBS. The secondary antibody, goat anti-Human IgG (PE, abcam, ab98596), was diluted (1:200) and added using 100 μL per tube. The reaction was performed on an ice bath for 1 hour in the dark. The cells were pelleted again and washed twice with PBS, resuspended in 300 μL PBS, and FL2 fluorescence readings were measured by cytometry. The results were analyzed by FlowJo™10 software.
Anti-FOLR1 antibody binding to Hela and RPTEC/TERT1 cells was tested by FACS. The study was carried out as described above. […]

B1: F40: anti-FOLR1 antibody clone; "Clone F40 has a different HCDRs and LCDRs, and with different HFR and LFR" (antibody, V domains shown)
VH: EVQLLESGGGVVQPGRSLRLSCAASGFTFSSYAMHWVRQAPGKGLEWVAVISYDGSNKYYADSVKGRFIISRDNSKNTVYLQMNSLRAEDTAVYYCARPTYVFTYTGSSFDYWGQGTQVTVSS
VL: DIQVTQSPSSLSASLGDTVSITCRASRGLTDSVAWYQQKPGQAPKLLIYAASTLQSGVPSRFGGSGSGSYFTLTITSLQPEDVATYYCQNYKSAPWTFGQGTKVEIK
For B1, the Hela cell binding was “weakly positive”.
